# PMC9279507
# Residue numbers refer to the chain shown, from its start. In names and notes the source's numbering stands.
# B1: STAT1cc (STAT1 core fragment, A656C and N658C, locked dimer), tag-free, P42224 K652A (protein)
# chain: MSQWYELQQLDSKFLEQVHQLYDDSFPMEIRQYLAQWLEKQDWEHAANDVSFATIRFHDLLSQLDDQYSRFSLENNFLLQHNIRKSKRNLQDNFQEDPIQMSMIIYSCLKEERKILENAQRFNQAQSGNIQSTVMLDKQKELDSKVRNVKDKVMCIEHEIKSLEDLQDEYDFKCKTLQNREHETNGVAKSDQKQEQLLLKKMYLMLDNKRKEVVHKIIELLNVTELTQNALINDELVEWKRRQQSACIGGPPNACLDQLQNWFTIVAESLQQVRQQLKKLEELEQKYTYEHDPITKNKQVLWDRTFSLFQQLIQSSFVVERQPCMPTHPQRPLVLKTGVQFTVKLRLLVKLQELNYNLKVKVLFDKDVNERNTVKGFRKFNILGTHTKVMNMEESTNGSLAAEFRHLQLKEQKNAGTRTNEGPLIVTEELHSLSFETQLCQPGLVIDLETTSLPVVVISNVSQLPSGWASILWYNMLVAEPRNLSFFLTPPCARWAQLSEVLSWQFSSVTKRGLNVDQLNMLGEKLLGPNASPDGLIPWTRFCKENINDKNFPFWLWIESILELIKKHLLPLWNDGCIMGFISKERERALLKDQQPGTFLLRFSESSREGAITFTWVERSQNGGEPDFHAVEPYTKKELSAVTFPDIIRNYAVMAAENIPENPLKYLYPNIDKDHAFGKYYSRPKEAPEPMELDGPKGTGYIKTELISVSEVHPSRLQTTDNLLPMSPEEFDEVSRIVGSVEFDSMMNTV
# B2: STAT1cc (STAT1 core fragment, A656C and N658C, locked dimer), tag-free, P42224 E625A (protein)
# chain: B1 chain with E625A, A652K
# B3: STAT1cc (STAT1 core fragment, A656C and N658C, locked dimer), tag-free, P42224 Q594A (protein)
# chain: B1 chain with Q594A, A652K
# B4: STAT1cc (STAT1 core fragment, A656C and N658C, locked dimer), tag-free, P42224 R619A (protein)
# chain: B1 chain with R619A, A652K
# B5: STAT1cc (STAT1 core fragment, A656C and N658C, locked dimer), tag-free, P42224 N622A (protein)
# chain: B1 chain with N622A, A652K
# B6: STAT1cc (STAT1 core fragment, A656C and N658C, locked dimer), tag-free, P42224 E657A (protein)
# chain: B1 chain with A652K, E657A
# B7: STAT1cc (STAT1 core fragment, A656C and N658C, locked dimer), tag-free, P42224 E661A (protein)
# chain: STVMLDKQKELDSKVRNVKDKVMCIEHEIKSLEDLQDEYDFKCKTLQNREHETNGVAKSDQKQEQLLLKKMYLMLDNKRKEVVHKIIELLNVTELTQNALINDELVEWKRRQQSACIGGPPNACLDQLQNWFTIVAESLQQVRQQLKKLEELEQKYTYEHDPITKNKQVLWDRTFSLFQQLIQSSFVVERQPCMPTHPQRPLVLKTGVQFTVKLRLLVKLQELNYNLKVKVLFDKDVNERNTVKGFRKFNILGTHTKVMNMEESTNGSLAAEFRHLQLKEQKNAGTRTNEGPLIVTEELHSLSFETQLCQPGLVIDLETTSLPVVVISNVSQLPSGWASILWYNMLVAEPRNLSFFLTPPCARWAQLSEVLSWQFSSVTKRGLNVDQLNMLGEKLLGPNASPDGLIPWTRFCKENINDKNFPFWLWIESILELIKKHLLPLWNDGCIMGFISKERERALLKDQQPGTFLLRFSESSREGAITFTWVERSQNGGEPDFHAVEPYTKKELSAVTFPDIIRNYKVMACECIPANPLKYLYPNIDKDHAFGKYYSRPKEAPEPMELDGPKGTGYIKTELISVSEVH
# B8: STAT1cc (STAT1 core fragment, A656C and N658C, locked dimer), tag-free, P42224 K665A (protein)
# chain: B1 chain with A652K, K665A
# Biological target: STAT1cc (STAT1 core fragment, A656C and N658C, locked dimer), tag-free (UniProt P42224)
# Test: nickel affinity copurification, SDS-PAGE, Coomassie blue band quantification
# Settings: parent: est. 1.0; read off a plot
row,Molecule,ratio to parent
1,6XHis-tagged TgIST-R2 (G365-S420) T381A,0.38
2,6XHis-tagged TgIST-R2 (G365-S420) E388A,1.1
3,6XHis-tagged TgIST-R2 (G365-S420) Q391A; Q392A,0.99
4,6XHis-tagged TgIST-R2 (G365-S420) D384A,0.57
5,6XHis-tagged TgIST-R2 (G365-S420) R387A,0.03
6,6XHis-tagged TgIST-R2 (G365-S420) L383A,0.01
7,6XHis-tagged TgIST-R2 (G365-S420) Q392A,0.91
8,6XHis-tagged TgIST-R2 (G365-S420) Q378A,0.83
9,6XHis-tagged TgIST-R2 (G365-S420) Q391A,1.1
10,6XHis-tagged TgIST-R2 (G365-S420) L386A,0.02
11,6XHis-tagged TgIST-R2 (G365-S420) R416A; R417A,0.98

# Biological target: GST-tagged TgIST-R2 (Toxoplasma gondii (type I strain GT1))
# Test: BLI; GST-tagged TgIST-R2 loaded on anti-GST biosensors, pSTAT1d or pSTAT1d-linker-R2 in solution; kinetic buffer (ForteBio), 25 °C; apparent avidity, 1:2 model
# Settings: not given
row,Molecule,Kd [nM]
1,"phosphorylated STAT1 dimer (pSTAT1d), STAT1 core domain S132-H713 (from UniProt P42224 132-713) (domain or fragment)",22

# Biological target: T1, 6XHis-tagged TgIST-R2 (G365-S420)
# T1 chain: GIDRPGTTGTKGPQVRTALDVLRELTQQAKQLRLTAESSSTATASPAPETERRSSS
# Test: nickel affinity copurification, SDS-PAGE, Coomassie blue band quantification
# Settings: chain shown with the change;; parent: est. 1.0; read off a plot
row,Molecule,ratio to parent
1,B1,0.4
2,B2,0.75
3,B3,0.79
4,B4,0.62
5,B5,0.71
6,B6,0.71
7,B7,0.61
8,B8,0.7

# Biological target: phosphorylated STAT1 dimer (pSTAT1d), STAT1 core domain S132-H713 (human) (UniProt P42224)
# Test: BLI; His-tagged pSTAT1d or STAT1 monomer loaded on Ni-NTA biosensors, TgIST-R2 proteins in solution; kinetic buffer (ForteBio), 25 °C; 1:1 model for the constant
# Settings: not given
row,Molecule,Kd [nM]
1,TgIST-R2 peptide after GST removal (domain or fragment),330
